Patent publication US20110318339A1 (FABRUS, published 2011)
Residue numbers refer to the chain shown, from its start. Numbers in names are those of the source. Values belong to the binder of their own block, whether it stands above or below them.

What was measured:
[1] = molecular target: T1, full-length human DLL4 expressed on the surface of CHO cells (human, UniProt Q9NR61 26-685); test: flow cytometry, 250 nM biotinylated Notch-Fc on CHO-DLL4 cells, no Fab (0 nM control)
T1 construct: also called CHO-DLL4; DLL4-expressing CHO cells
Protocol: (§1) Streptavidin-PE was used as a detection molecule.
(§2) Fab was 5-fold serially diluted in 2% BSA/PBS from a starting concentration of 50 nM. […] PE-labeled streptavidin (Cat# 21627, Pierce-Thermo Scientific) was then added to a final dilution of 1:5 followed by incubation for 10 minutes at room temperature. The cells were then washed twice in 2% BSA/PBS and analyzed by flow cytometry on a BD FACSAria.

[2] = molecular target: T2, recombinant human DLL4 (Cat# 1506-D4/CF, R&D Systems) (human, UniProt Q9NR61 27-529); test: ELISA, hDLL4 coated 0.5 ng/ul, Fab 50.00 nM
T2 construct: Bought protein; also called hDLL4; h DLL4
Protocol: (§3) The plate was blocked by adding 1% BSA in Tris-buffered Saline Tween (TBST) and incubating for 1 hour at room temperature followed by washing 2 times with 150 μl TBST. A Fab antibody was serially diluted in 1% BSA in PBS. A 50 μl aliquot of each serial dilution was added, in triplicate, to each well and the plate was incubated for 1 hour at room temperature followed by washing 2 times with TBST. 50 μl of either goat anti-human kappa HRP conjugated secondary antibody (Cat # A7164-1 mL, Sigma-Aldrich) or goat anti-human lambda HRP conjugated secondary antibody (Cat # L1645-1 ml, Sigma-Aldrich), diluted 1:1000 in 1% BSA in PBS, was added to each well and the plate was incubated for 30 minutes at room temperature followed by washing 3 times with 200 μl TBST. Finally, 50 μl TMB one-component reagent (Cat # TMBW-1000-01, BioFax) was added and allowed to develop for 2 minutes at room temperature. The reaction was immediately halted by the addition of 50 μl 0.5M H₂SO₄ and the absorbance at 450 nm was measured using an ELISA plate reader.

[3] = molecular target: T2, recombinant human DLL4 (Cat# …); test: ELISA, hDLL4 coated 0.5 ng/ul, Fab 0.78 nM
Protocol: as §3

[4] = molecular target: T1, full-length human DLL4 expressed on the …; test: flow cytometry competition, 250 nM biotinylated Notch-Fc as competitor, Fab 10 nM
Protocol: as §1, §2

[5] = molecular target: T2, recombinant human DLL4 (Cat# …); test: ELISA, hDLL4 coated 0.5 ng/ul, Fab 3.13 nM
Protocol: as §3

[6] = molecular target: T2, recombinant human DLL4 (Cat# …); test: ELISA, hDLL4 coated 0.5 ng/ul, Fab 1.56 nM
Protocol: as §3

[7] = molecular target: T1, full-length human DLL4 expressed on the …; test: flow cytometry competition, 250 nM biotinylated Notch-Fc as competitor, Fab 50 nM
Protocol: as §1, §2

[8] = molecular target: T2, recombinant human DLL4 (Cat# …); test: ELISA, hDLL4 coated 0.5 ng/ul, Fab 12.50 nM
Protocol: as §3

[9] = molecular target: T2, recombinant human DLL4 (Cat# …); test: ELISA, hDLL4 coated 0.5 ng/ul, Fab 100.00 nM
Protocol: as §3

[10] = molecular target: T2, recombinant human DLL4 (Cat# …); test: ELISA, hDLL4 coated 0.5 ng/ul, Fab 6.25 nM
Protocol: as §3

[11] = molecular target: T2, recombinant human DLL4 (Cat# …); test: ELISA, hDLL4 coated 0.5 ng/ul, Fab 25.00 nM
Protocol: as §3

[12] = molecular target: T1, full-length human DLL4 expressed on the …; test: flow cytometry competition, 250 nM biotinylated Notch-Fc as competitor, Fab 2 nM
Protocol: as §1, §2

[13] = molecular target: T3, Recombinant Human DLL4 (Cat# 1506-D4/CF, R&D Systems) (human, UniProt Q9NR61 27-529); test: ELISA, hDLL4 coated, estimated from dose-dependent binding
T3 construct: Bought protein; also called rHuman DLL4; hDLL4

[14] = molecular target: full-length human DLL4 expressed on the surface of CHO cells (human, UniProt Q9NR61 27-685); test: cell-based or functional assay
[15] = molecular target: T4, recombinant human DLL4 (Cat# 1506-D4/CF, R&D Systems) (human, UniProt Q9NR61 27-529); test: ELISA, DLL4 coated, Fab 20 nM
T4 construct: Bought protein; also called hDLL4; rHuman DLL4
Procedure, shortened: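 Block 1% BSA/TBST 1 h RT; Fab serial dilutions (1% BSA/PBS, triplicate) 1 h RT; HRP anti-human kappa or lambda 1:1000, 30 min RT; TMB 2 min; 0.5M H₂SO₄ stop; OD450.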

[16] = molecular target: T4, recombinant human DLL4 (Cat# …); test: ELISA, DLL4 coated, Fab 2.22 nM
Protocol: as §3

[17] = molecular target: T4, recombinant human DLL4 (Cat# …); test: ELISA, DLL4 coated, Fab 0.74 nM
Protocol: as §3

[18] = molecular target: T4, recombinant human DLL4 (Cat# …); test: SPR (ProteOn), hDLL4 amine-coupled on chip
Procedure, shortened: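 Binding constants came from global fits of response data per surface. Three densities of amine-immobilised DLL4 were used, and Fabs started at 1 μM with 3-fold dilutions. Running buffer was HEPES 10 mM pH 7.4, NaCl 150 mM, Tween-20 0.01%, BSA 0.1 mg/ml at 25° C on a GLM chip.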

[19] = molecular target: T4, recombinant human DLL4 (Cat# …); test: ELISA, DLL4 coated, Fab 6.67 nM
Protocol: as §3

[20] = molecular target: T5, recombinant mouse DLL4 (Cat# 1389-D4-050/CF, R&D Systems) (mouse, UniProt Q9JI71 28-525); test: SPR, mDLL4 on chip, row 'Surface 1' (second)
T5 construct: Bought protein; also called mDLL4
T5 sequence (Q9JI71 28-525 limits assumed): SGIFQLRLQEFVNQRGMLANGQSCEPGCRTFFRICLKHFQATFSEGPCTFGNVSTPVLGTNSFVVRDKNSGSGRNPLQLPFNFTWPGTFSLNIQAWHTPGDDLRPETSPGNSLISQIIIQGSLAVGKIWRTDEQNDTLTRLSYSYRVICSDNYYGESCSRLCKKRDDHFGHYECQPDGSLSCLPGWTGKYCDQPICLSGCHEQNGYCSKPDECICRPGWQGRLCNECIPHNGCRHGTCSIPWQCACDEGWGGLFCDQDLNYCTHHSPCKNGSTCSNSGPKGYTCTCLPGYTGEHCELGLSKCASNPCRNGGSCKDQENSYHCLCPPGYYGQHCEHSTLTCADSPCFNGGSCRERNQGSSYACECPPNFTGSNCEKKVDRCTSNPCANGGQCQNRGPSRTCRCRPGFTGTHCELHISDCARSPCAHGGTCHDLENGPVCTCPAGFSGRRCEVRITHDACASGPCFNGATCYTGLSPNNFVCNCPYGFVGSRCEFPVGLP

[21] = molecular target: T5, recombinant mouse DLL4 (Cat# …); test: SPR, mDLL4 on chip, row 'Surface 1' (first)
[22] = molecular target: T5, recombinant mouse DLL4 (Cat# …); test: SPR, mDLL4 on chip, row 'Surface 1' (third)
[23] = molecular target: T5, recombinant mouse DLL4 (Cat# …); test: SPR, mDLL4 on chip, average of three surfaces
[24] = molecular target: T3, Recombinant Human DLL4 (Cat# …); test: ELISA, DLL4 coated

B2: Fab VH5-51_IGHD5-18*01>3_IGHJ4*01 G100K/G104T G24T/S28R/G35V (H:KT TRV) & V3-4_IGLJ1*01 (Fab, V domains shown)
VH: EVQLVQSGAEVKKPGESLKISCKTSGYRFTSYWIVWVRQMPGKGLEWMGIIYPGDSDTRYSPSFQGQVTISADKSISTAYLQWSSLKASDTAMYYCARRKYSYTYDYFDYWGQGTLVTVSS
VL: QTVVTQEPSFSVSPGGTVTLTCGLSSGSVSTSYYPSWYQQTPGQAPRTLIYSTNTRSSGVPDRFSGSILGNKAALTITGAQADDESDYYCVLYMGSGISYVFGTGTKVTVL
notes: Tested as Fab from E. coli (Plasmid A: CH1, His6, Flag; Plasmid E: CL lambda); also called H:KT TRV & L:wt
ELISA absorbance at 450 nm [2]: 0.976 A450 | ELISA absorbance at 450 nm [3]: 0.143 A450 | signal of Notch-Fc bound to CHO-DLL4 (streptavidin-PE) [4]: 244 | ELISA absorbance at 450 nm [5]: 0.187 A450 | ELISA absorbance at 450 nm [6]: 0.183 A450 | signal of Notch-Fc bound to CHO-DLL4 (streptavidin-PE) [7]: 141 | ELISA absorbance at 450 nm [8]: 0.389 A450 | ELISA absorbance at 450 nm [9]: 1.45 A450 | ELISA absorbance at 450 nm [10]: 0.31 A450 | ELISA absorbance at 450 nm [11]: 0.6 A450 | signal of Notch-Fc bound to CHO-DLL4 (streptavidin-PE) [12]: 448

B5: Fab VH1-46_IGHD6-6*01_IGHJ1*01 S102A/S103P/S104F/H111F I51V/N52L/S54T/G56H & L6_IGKJ1*01 S28N/S30D/S31H S52L/A55S (Fab, V domains shown)
VH: QVQLVQSGAEVKKPGASVKVSCKASGYTFTSYYMHWVRQAPGQGLEWMGIVLPTGHSTSYAQKFQGRVTMTRDTSTSTVYMELSSLRSEDTAVYYCAREEYAPFSAEYFQFWGQGTLVTVSS
VL: EIVLTQSPATLSLSPGERATLSCRASQNVDHYLAWYQQKPGQAPRLLIYDALNRSTGIPARFSGSGSGTDFTLTISSLEPEDFAVYYCQQRSNWPPWTFGQGTKVEIKR
notes: Fab made in E. coli: VH on CH1 with His6 and Flag tags (Plasmid A), VL on kappa CL (Plasmid C); also called H: APFF VLTH & L: NDH LS
ELISA absorbance at 450 nm [15]: 0.91 A450 | ELISA absorbance at 450 nm [16]: 0.523 A450 | ELISA absorbance at 450 nm [17]: 0.263 A450 | Kd [18]: 1.7 nM | koff [18]: 0.00109 s⁻¹ | kon [18]: 684000 M⁻¹ s⁻¹ | ELISA absorbance at 450 nm [19]: 0.747 A450 | Kd [20]: 10.8 nM | koff [20]: 0.00178 s⁻¹ | kon [20]: 165000 M⁻¹ s⁻¹ | Kd [21]: 7.3 nM | koff [21]: 0.0021 s⁻¹ | kon [21]: 287000 M⁻¹ s⁻¹ | Kd [22]: 10.9 nM | koff [22]: 0.00188 s⁻¹ | kon [22]: 173000 M⁻¹ s⁻¹ | Kd [23]: 9.7 nM | koff [23]: 0.00192 s⁻¹ | kon [23]: 208000 M⁻¹ s⁻¹

B6: Fab H:APFF VLTH & L:NDH (Fab, V domains shown)
VH: B5 VH
VL: B5 VL with L52S, S55A
notes: Fab, kappa light chain
fold increased binding affinity against the antibody mutants with heavy chain H:APFF ALTH [24]: ~10 fold | Kd [13]: ~1 nM

The remaining lines, values ahead:

signal of Notch-Fc bound to CHO-DLL4 (streptavidin-PE) [1]: 531
B1: biotinylated Notch-Fc (rHuman Notch-1/Fc Chimera, cat# 3647-TK-050, R&D Systems) (Fc fusion)
chain: ARGPRCSQPGETCLNGGKCEAANGTEACVCGGAFVGPRCQDPNPCLSTPCKNAGTCHVVDRRGVADYACSCALGFSGPLCLTPLDNACLTNPCRNGGTCDLLTLTEYKCRCPPGWSGKSCQQADPCASNPCANGGQCLPFEASYICHCPPSFHGPTCRQDVNECGQKPGLCRHGGTCHNEVGSYRCVCRATHTGPNCERPYVPCSPSPCQNGGTCRPTGDVTHECACLPGFTGQNCEENIDDCPGNNCKNGGACVDGVNTYNCRCPPEWTGQYCTEDVDECQLMPNACQNGGTCHNTHGGYNCVCVNGWTGEDCSENIDDCASAACFHGATCHDRVASFYCECPHGRTGLLCHLNDACISNPCNEGSNCDTNPVNGKAICTCPSGYTGPACSQDVDECSLGANPCEHAGKCINTLGSFECQCLQGYTGPRCEIDVNECVSNPCQNDATCLDQIGEFQCICMPGYEGVHCEVNTDECASSPCLHNGRCLDKINEFQCECPTGFTGHLCQ
modifications: biotinylated with EZ-Link NHS-Biotin Reagent (sites not given)
notes: Bought Notch-1/Fc chimera; Fc part of the bought chimera not given

Kd [13]: ~50 nM
B3: Fab VH5-51_IGHD5-18*01>3_IGHJ4*01 H:KT TRV & V3-4_IGLJ1*01 (Fab, V domains shown)
VH: B2 VH
VL: B2 VL
notes: Fab, lambda light chain; also called H:KT TRV & L:wt; G100K/G104T G24T/S28R/G35V

IC50, Notch-activation (luciferase reporter), T98G cells with CHO-DLL4 [14]: ~6 nM | fold efficiency against Fab H:APFF VLTH & L:NDH LS, Notch-activation (luciferase reporter) [14]: 30 fold
B4: IgG H:APFF VLTH & L:NDH LS (antibody, V domains shown)
VH: B5 VH with V51G
VL: B5 VL
